Data published in article PMC7612376, “Structural basis of meiotic chromosome synaptic elongation through hierarchical fibrous assembly of SYCE2-TEX12” (Nature structural & molecular biology, 2021).

What was measured:
Assay in all cases: SEC-MALS; co-purified complexes at >1 mg/ml on Superdex 200 Increase 10/300 GL in 20 mM Tris pH 8.0, 150 mM KCl, 2 mM DTT; in Fig. 1 core at 200 uM and full-length at 100 uM (4 mg/ml)
Details in all cases: both partners purified
[1] = target: T1, SYCE2 core ΔS2C (amino-acids 57-154) (human, UniProt Q6PIF2 57-154)
T1 construct: SYCE2, human, ΔS2C, residues 57-154; source: E. coli BL21 (DE3), co-expressed with TEX12, purified (Ni-NTA, amylose, ion exchange, SEC); not shown: MBP, N-terminal, cleaved
T1 sequence (looked up): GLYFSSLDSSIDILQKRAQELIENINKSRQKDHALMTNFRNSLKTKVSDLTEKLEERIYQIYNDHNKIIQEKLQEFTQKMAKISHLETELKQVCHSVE

[2] = target: T2, SYCE2 core (amino-acids 57-165) (human, UniProt Q6PIF2 57-165)
T2 construct: SYCE2, human, core, residues 57-165; also called SYCE2 structural core; source: E. coli BL21 (DE3), co-expressed with TEX12, purified (Ni-NTA, amylose, ion exchange, SEC); not shown: MBP, N-terminal, cleaved
T2 sequence (looked up): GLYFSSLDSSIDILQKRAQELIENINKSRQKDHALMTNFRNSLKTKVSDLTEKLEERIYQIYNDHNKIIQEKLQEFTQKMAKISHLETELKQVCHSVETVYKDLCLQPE

[3] = target: T3, SYCE2 core V149E V153E V156E L160E (human, UniProt Q6PIF2 57-165, V149E | V153E | V156E | L160E)
T3 construct: SYCE2, human, core, residues 57-165, with V149E, V153E, V156E and L160E; The four mutations are read as combined in one construct (one mass is printed for it); also called V149E, V153E, V156E and L160E mutant; S2C hydrophobic core mutant; source: E. coli BL21 (DE3), co-expressed with TEX12, purified (Ni-NTA, amylose, ion exchange, SEC); not shown: MBP, N-terminal, cleaved
T3 sequence (looked up): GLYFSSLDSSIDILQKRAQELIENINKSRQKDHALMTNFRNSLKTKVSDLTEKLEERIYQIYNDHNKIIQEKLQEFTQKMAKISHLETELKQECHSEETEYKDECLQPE

SYCE2 core H89E Y115E = target: T4, SYCE2 core H89E Y115E (human, UniProt Q6PIF2 57-165, H89E | Y115E)
T4 construct: SYCE2, human, core, residues 57-165, with H89E and Y115E; source: E. coli BL21 (DE3), co-expressed with TEX12, purified (Ni-NTA, amylose, ion exchange, SEC); not shown: MBP, N-terminal, cleaved
T4 sequence (looked up): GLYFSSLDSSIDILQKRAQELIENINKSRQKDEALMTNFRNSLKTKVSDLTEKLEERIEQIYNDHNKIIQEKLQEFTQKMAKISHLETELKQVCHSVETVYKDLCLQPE

- stoichiometry N [1]: 1 TEX12 per SYCE2 (2:2)
- stoichiometry N [2]: 1 TEX12 per SYCE2 (4:4)
- stoichiometry N [3]: 1 TEX12 per SYCE2 (2:2)
- stoichiometry N (SYCE2 core H89E Y115E): 1 TEX12 per SYCE2 (2:2)
B1: TEX12 core (amino-acids 49-123) (domain or fragment, human, UniProt Q9BXU0 49-123, looked up)
chain: KDEALEKDLNDVSKEINLMLSTYAKLLSERAAVDASYIDEIDELFKEANAIENFLIQKREFLRQRFTVIANTLHR
notes: TEX12, human, core, residues 49-123; also called TEX12 structural core; source: E. coli BL21 (DE3), co-expressed with SYCE2, purified (Ni-NTA, amylose, ion exchange, SEC); not shown: His6, N-terminal, cleaved
